The results in this text go back to paper PMC11381367.

The target of data set [1] is H2AK119ub nucleosome (dichloroacetone-linked ubiquitin on histone H2A-K119, Xenopus laevis histones) (Xenopus laevis | not stated) (UniProt P06897). Put plainly: SPR; Biacore 8K; 5' biotinylated 185 bp nucleosome (about 200 RU) captured on streptavidin on a CM5 chip; RCC1 as analyte in 2-fold dilutions; HBS-EP+ (10 mM HEPES pH 7.4, 150 mM NaCl, 3 mM EDTA, 0.05% Tween-20); 1:1 steady-state affinity fit, two replicates.

For data set [2], the target named is unmodified nucleosome (Xenopus laevis histones, Widom 601 DNA) (Xenopus laevis). Described as above.
In data set [3] the test system is RCC1. In words: SPR. To be noted: EMSA: 20 mM HEPES pH 7.6, 50 mM NaCl, 5% sucrose, 1 mM DTT, 2.5 mM MgCl2, 0.1 mg/ml BSA, on ice 1 h, SPR: 10 mM HEPES pH 7.4, 150 mM NaCl, 3 mM EDTA, 0.05% ….

Sequence of RCC1 (P18754 whole entry): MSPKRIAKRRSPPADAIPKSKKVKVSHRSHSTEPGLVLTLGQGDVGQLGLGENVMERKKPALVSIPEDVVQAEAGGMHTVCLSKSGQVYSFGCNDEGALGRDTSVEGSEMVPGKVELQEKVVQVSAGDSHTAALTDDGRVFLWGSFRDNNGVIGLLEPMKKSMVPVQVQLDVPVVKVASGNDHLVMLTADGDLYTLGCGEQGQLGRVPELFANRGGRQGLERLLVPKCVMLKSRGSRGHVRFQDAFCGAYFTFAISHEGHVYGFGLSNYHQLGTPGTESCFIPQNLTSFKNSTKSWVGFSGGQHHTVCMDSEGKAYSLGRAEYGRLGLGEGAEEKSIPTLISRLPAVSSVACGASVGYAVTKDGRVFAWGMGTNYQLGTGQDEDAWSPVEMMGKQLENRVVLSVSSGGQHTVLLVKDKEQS

“RCC1 (from UniProt P18754 1-421) (natural protein)”: the results for the Kd in data set [1] and in data set [2] were 540 nM and 730 nM, respectively. In the case of H2BK120ub nucleosome, 185 bp 601 (SPR), the Kd in data set [3] (histone H2BK120ub) is > 10000 nM.

As for unmodified nucleosome, 185 bp 601 (SPR), the Kd in data set [3] (unmodified histones) is 730 nM. For H2AK119ub nucleosome, 185 bp 601 (SPR), the Kd in data set [3] (histone H2AK119ub) came to 540 nM. This lies in the sub-micromolar range.
